The subject of data set [1] is RBPMS-A T/E. The data set is described as follows: UV crosslinking. Conditions: 4 uM protein, with 20% HeLa nuclear extract, EMSA: 50 mM HEPES pH 7.2-7.9, 15 mM MgCl2, 25% glycerol, 5 mM DTT, 45 mM KCl, 5 ug tRNA, 20 fmol RNA, 25 min at 30 C, then 5 ug heparin 5 min at 30 C. (In general: A gel shift assay detects complexes by their altered migration in electrophoresis.)

The test system of data set [2] is RBPMS-A T/A. The data set is described as follows: EMSA. Conditions: apparent Kd, Hill fit; tRNA and heparin present; EMSA: 50 mM HEPES pH 7.2-7.9, 15 mM MgCl2, 25% glycerol, 5 mM DTT, 45 mM KCl, 5 ug tRNA, 20 fmol RNA, 25 min at 30 C, then 5 ug heparin 5 min at 30 C; 4% ….
The subject of data set [3] is RBPMS-A T/E. The data set is described as follows: EMSA. Conditions: apparent Kd, Hill fit; tRNA and heparin present; EMSA: 50 mM HEPES pH 7.2-7.9, 15 mM MgCl2, 25% glycerol, 5 mM DTT, 45 mM KCl, 5 ug tRNA, 20 fmol RNA, 25 min at 30 C, then 5 ug heparin 5 min at 30 C; 4% ….

Results on two substances are retold here after PMC9723635.

Consider Tpm1 UV-crosslinking RNA, for which the binding signal in data set [1] is 7.8 % of WT.
For the substance “Tpm1 exon 3 upstream intron EMSA RNA (three tandem CAC motifs)”, the values for the Kd in data set [2] and in data set [3] were 268 nM and 756 nM, respectively.
